Values quoted from earlier work in paper PMC8329073.

Target: Thrombin (UniProt P00734+P00734)
Settings: 20 mM Tris-HCl pH 7.5 (22 °C), 100 mM NaCl, 0.1 mM EDTA, 5 mM MgCl2 (20 mM MgCl2 for DNAzyme), room temperature; indirect read-out by strand-displacement …

thrombin DNA aptamer (parent, ref 67)
Kd: 0.5 nM
